Source: the supplement of paper PMC12764529
± gives the half width of the 95% confidence interval.

Key:
[1] = folding stability dG unfold from chymotrypsin proteolysis; higher = more stable
Outline: (§1)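 Designed mini-proteins (under 80 residues, no cysteine) in a PA-tagged cDNA display construct were digested with trypsin and chymotrypsin. Each protease was used at 11 concentrations (threefold dilutions) plus a no-protease condition, followed by sequencing. K50 was inferred by Bayesian fitting of sequencing counts, and unfolding free energy was derived against a sequence-predicted unfolded-state K50 and a shared folded-state K50, per protease or combined. Only designs with AlphaFold2 dimer inter-PAE above 15 were kept.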

[2] = folding stability dG unfold from trypsin proteolysis; higher = more stable
Outline: as §1

[3] = folding stability dG unfold (combined trypsin and chymotrypsin); higher = more stable
Outline: as §1

Sequence	folding stability dG unfold [1]	folding stability dG unfold [2]	folding stability dG unfold [3]
SAGGAEELAKALADELRKLFPGEEIEVTVELVEVEVEPGQKVTLPDGSTVEVPPGAKVLVLKITVKPSAGGS [r16_357_TrROS_Hall]	3.56 ± 0.13 kcal/mol	3.13 ± 0.16 kcal/mol	3.44 ± 0.14 kcal/mol
SAGGGTRTINFDSPEDAEDAIEDWPDWDKVTISVPSNGEPQSIPLKIKPPPPPKYKRDENGKPEPEPDSAGG [r13_183_TrROS]	2.95 ± 0.19 kcal/mol	2.08 ± 0.14 kcal/mol	2.65 ± 0.25 kcal/mol
SAGGMIRITTEDGEELSEEELAELEEAIRKGDLDEAVKKIEELLRERFGKEIKIKVEVFFPPPPPPESAGGS [r8_48_TrROS_Hall]	3.26 ± 0.092 kcal/mol	3.79 ± 0.26 kcal/mol	3.59 ± 0.15 kcal/mol
SFEIEILDVDPDGWIVITIRYPSPDGKPLTPEEMEEIAEEIALELFPQFPDFKVTIEHDPESGTITIVIRSA [r9_485_TrROS]	3.59 ± 0.3 kcal/mol	4.25 ± 0.35 kcal/mol	4.15 ± 0.43 kcal/mol
SAGGSAGGSAWIVIPAEDIKENLDEIEFRNGDGQEYRIKVDVQEHGDRPYVMIDIVPPGQPISAGGSAGGSA [r18_447_TrROS]	0.882 ± 0.15 kcal/mol	-0.413 ± 0.28 kcal/mol	0.472 ± 0.18 kcal/mol
SAGPVVTLTVTVEIEVDGVRVEVTVTATLLPDGTVVITATVKVTLPNGETKTVTVTLTFPPGVDEVVLTSAG [r5_829_TrROS_Hall]	3.42 ± 0.18 kcal/mol	2.62 ± 0.15 kcal/mol	3.06 ± 0.25 kcal/mol
SAGYKATIIPPDGSEVTIDVKAEDLGPLVEELEKAGLKVESLEVSPDGTAVIPVTSPDGKPYLIVIDLKSAG [r5_645_TrMRF]	0.305 ± 0.11 kcal/mol	0.418 ± 0.032 kcal/mol	0.413 ± 0.094 kcal/mol
SAGGSAGGSAMKPVPFEVLSVSYPVLPNGTRIRLVEIKFPETGEVKWIELSPDDPVIKALLSAGGSAGGSAG [r3_57_JUSTAS]	1.899 ± 0.011 kcal/mol	2.27 ± 0.029 kcal/mol	2.06 ± 0.086 kcal/mol
SAGGSAALELVEEVSEFYDPNTGKKTTLVVARKDGKPILILIPPSGATVYDASNGNKLFEIPPELLSAGGSA [r15_85_JUSTAS]	1.16 ± 0.074 kcal/mol	0.61 ± 0.03 kcal/mol	0.951 ± 0.065 kcal/mol
PKEIIEFAKKNGFKVKIEPVKVGSEEKAKKLAEEIKKKNNGKVFIIKNPKTGEAVYRIEIYPLKVPKNKKLS [r1_179_TrMRF]	2.1 ± 0.22 kcal/mol	1.37 ± 0.14 kcal/mol	1.9 ± 0.43 kcal/mol
SAGGARVFEVTFPDGSRARIVLLPDGTLLLETDSLDNLVALLEALGVELVSIRRHPDGRVLAVARLPPSAGG [r19_257_TrMRF]	4.32 ± 0.14 kcal/mol	4.49 ± 0.14 kcal/mol	4.43 ± 0.082 kcal/mol
SAGGNIKVRREPRPNGQYRVKITIPDPDGKPIEIEYRMPPGMDSPEQAQKEAIEVVKEFAKKHNIKISAGGS [r8_464_TrROS]	0.733 ± 0.17 kcal/mol	0.423 ± 0.17 kcal/mol	0.605 ± 0.21 kcal/mol
SAGGSSSSALVTVPRTETFPGTTLTTETLITIDPETGTVKVTSTVYSEGEPVEVVPSTVPAAEVTLSAGGSA [r2_188_JUSTAS]	0.503 ± 0.051 kcal/mol	0.566 ± 0.036 kcal/mol	0.592 ± 0.077 kcal/mol
SAGGSAGGSMKNIKEIKVERRKLPNGGEYYVVTITYPDGKEIIIEMSPEETLEEALEKAKELSSAGGSAGGS [r12_1047_JUSTAS]	3.01 ± 0.21 kcal/mol	2.87 ± 0.16 kcal/mol	2.92 ± 0.13 kcal/mol
PFRVMVDLERDPEDGWYKVTIMVQAKDGRPITPELIENAAREIFKQGFPIKKIKLEPYPNGYVHFKIEIPLS [r1_408_TrROS]	2.88 ± 0.037 kcal/mol	2.15 ± 0.035 kcal/mol	2.65 ± 0.064 kcal/mol
SAGGSAGGSAGIPLGPDGGLIVTEGPDGPVEERLFASPEEARRWIEEHLPEGWRVVFRPLSAGGSAGGSAGG [r11_983_TrMRF]	1.6 ± 0.13 kcal/mol	1.15 ± 0.017 kcal/mol	1.47 ± 0.058 kcal/mol
SAGDKIEIKFNIPMPEGPIRIMVWDNGKREEKDIPPGEEVTIKIDLPPGDDYRIAIYYPDGNMHEFPINSAG [r5_187_TrROS]	3.31 ± 0.14 kcal/mol	1.65 ± 0.17 kcal/mol	2.47 ± 0.25 kcal/mol
SAGGSAGGSAGMPKVEAVDISYSADPNSKSYTITIKSPDGEPIVLTLNSPSEIENLELVLSAGGSAGGSAGG [r11_711_JUSTAS]	1.34 ± 0.1 kcal/mol	1.19 ± 0.026 kcal/mol	1.34 ± 0.13 kcal/mol
SAEEEEVVEVELEIEIEMTPEELEELIEALRKAAEELGFEIEDIEIRVERKEDGTLRVTIRVKIRLPKPSAG [r14_109_TrROS_Hall]	4.69 ± 0.48 kcal/mol	3.68 ± 0.13 kcal/mol	4.2 ± 0.23 kcal/mol
SAGGKGPKKIILPLKFKIKTKPNEKKSKIKFKLSLKLFPKAKKVEVKSSIKPLKNNYALLDFDIVIEASAGG [r13_872_TrMRF]	3.6 ± 0.13 kcal/mol	3.53 ± 0.23 kcal/mol	3.56 ± 0.45 kcal/mol
SAKKIPLDDAKIRIKMESPNGMIMEFPIKNVQIDPKNGKLSFEFPMRIYNPDNGKERPMRMKIDEIVPVSAG [r14_825_TrROS]	0.299 ± 0.25 kcal/mol	0.107 ± 0.37 kcal/mol	0.22 ± 0.19 kcal/mol

Sequence	folding stability dG unfold [1]	folding stability dG unfold [2]	folding stability dG unfold [3]
SAGGSAGGSAGMTPGPAPRPKVTVEPSLSEVPEDDSIVTTTTVTFPDTGETTSSTTTSSASAGGSAGGSAGG [r17_31_JUSTAS]	1.24 ± 0.051 kcal/mol	0.337 ± 0.064 kcal/mol	1 ± 0.084 kcal/mol
SAGGSAGGSKAEVFETPDGLVVVVVPTEDSVRAFVFFPDGYIAEFDFPTGKIVRIFSPDEEIASAGGSAGGS [r12_235_TrMRF]	3.55 ± 0.052 kcal/mol	2.8 ± 0.09 kcal/mol	3.27 ± 0.079 kcal/mol
SAGGSAGGSAGGPVRIVMKPSDIEYLLEKFGVEPLEIEEVEEDYVVVTITPEALKEAGLGSAGGSAGGSAGG [r7_587_TrMRF]	0.737 ± 0.049 kcal/mol	1.1 ± 0.065 kcal/mol	1.01 ± 0.18 kcal/mol
SKPGKTIMIMITMDNIKEFLEELPLEPNMEVEIMFMNPNGKMRTLTIRNGEIDSIEPFPNFPDYWMIMIKSA [r9_849_TrROS]	2.92 ± 0.07 kcal/mol	2.69 ± 0.071 kcal/mol	2.78 ± 0.24 kcal/mol
SAGGMTKTVTVTIEIDVPPGVTVDELIEKLKELAEKLGLTVKVTSVTVEEVDGKLVVTVEVEIEPPEPSAGG [r13_351_TrROS_Hall]	2.6 ± 0.18 kcal/mol	2.58 ± 0.25 kcal/mol	2.5 ± 0.31 kcal/mol
SAGGSAGGSAGGSLPLILRLAEENGFSVSAVPIPETGTYKAVVTLPDGKPITIELPLTLSAGGSAGGSAGGS [r4_121_TrMRF]	1.04 ± 0.33 kcal/mol	0.295 ± 0.12 kcal/mol	0.804 ± 0.2 kcal/mol
SAGGYKYKREKYRDPENGQPRERYKREPPPPPPPSISININAPPEMADKIADILQDLLPNMPVGINGSAGGS [r8_437_TrROS]	3.04 ± 0.23 kcal/mol	2.45 ± 0.088 kcal/mol	2.84 ± 0.21 kcal/mol
SAGGSAGGSAGGSLEIEITFELPDDVRLRIRARIEPLPDGSLKVEVEIELIPVKPDEDLSAGGSAGGSAGGS [r10_241_TrMRF]	2.9 ± 0.089 kcal/mol	3.17 ± 0.15 kcal/mol	3.09 ± 0.21 kcal/mol
SAGGSAGGSAGGSMKIEIVTNDPKKAEEIKEKLEKEGYPKKKNPINIEVKEISEEELLKSAGGSAGGSAGGS [r4_281_JUSTAS]	0.628 ± 0.053 kcal/mol	-0.113 ± 0.085 kcal/mol	0.533 ± 0.16 kcal/mol
SAGGTIYIWFPMKVDEAVDLAKELAENKDWKIEIYNGGKEHEIELDKIEPVPPENVRVYIEIEPKPDSAGGS [r16_628_TrROS]	1.64 ± 0.082 kcal/mol	0.423 ± 0.041 kcal/mol	1.26 ± 0.097 kcal/mol
SAGGSAGGDPPNVKIEPEIEPRRDPDGKPYVKIPYTIELPDGRPIQIDMWIDPKNGNQGPHIHISAGGSAGG [r6_298_TrROS]	0.486 ± 0.31 kcal/mol	0.817 ± 0.24 kcal/mol	0.64 ± 0.54 kcal/mol
SAGGMKTLTITLTVRNPATQETLTLTITVPEGMSEEELQALLKQLQELVEALLQLPPPPPPPPPELESAGGS [r16_191_TrROS_Hall]	4.25 ± 0.066 kcal/mol	3.16 ± 0.12 kcal/mol	4.01 ± 0.11 kcal/mol
SAGMVKIEIEKKEDGEILITITAPSEEELKKLAEELAKELAKKLGIEEIEVKVEKLENGEYKVTIRIKKSAG [r5_772_TrROS_Hall]	3.09 ± 0.26 kcal/mol	2.99 ± 0.14 kcal/mol	2.99 ± 0.23 kcal/mol
SAGGSAGGSAGKLRYRYRFDTVLLEVTYDPSTGEVVEVKVIPLSPLPPLTPEELYRLLEDSAGGSAGGSAGG [r11_320_TrMRF]	3.071 ± 0.018 kcal/mol	2.25 ± 0.053 kcal/mol	2.82 ± 0.056 kcal/mol
SAGGSAGGSAGGWDVEIEPFPDGFIFITAEGPNGRKLVIVVMVVPEGKLMYMIVPLDDLSAGGSAGGSAGGS [r10_140_TrROS]	3.71 ± 0.097 kcal/mol	2.35 ± 0.095 kcal/mol	3.34 ± 0.19 kcal/mol
SAGGSAGGSAGGIRIEFPGMKFEIDEFDPPNGVITLRFPENGQELQIKFDSDGEITKITWSAGGSAGGSAGG [r7_553_TrROS]	1.94 ± 0.14 kcal/mol	2.05 ± 0.2 kcal/mol	2.25 ± 0.28 kcal/mol
SAGGSAGGSAGGEKKKIAKKIKEELEKKGIKVKKVETSEDYIYITFEDGSKKKIKIDKGSAGGSAGGSAGGS [r10_169_TrMRF]	1.6 ± 0.18 kcal/mol	2.1 ± 0.16 kcal/mol	1.74 ± 0.2 kcal/mol
SAGGSAGGSAGAAPDGETVRITAVFVNPETQEVFVVEATINPDGELTMEVKEVFKLPEGLSAGGSAGGSAGG [r11_226_TrROS_Hall]	2.782 ± 0.017 kcal/mol	1.42 ± 0.033 kcal/mol	2.36 ± 0.068 kcal/mol
MTLLIPLPPAFPDLTPEQVLDLLRELFLSPDEEATAEENPETGSVTVTVRRGDEEYVFTFYPDGYLVLEPGS [r1_131_TrMRF]	2.799 ± 0.016 kcal/mol	2.85 ± 0.04 kcal/mol	2.83 ± 0.04 kcal/mol
SAGPPGQPVKTIEIMIEFPPGQTMEEARERVEEIADEIQRKFPKIKSIDVDVQKDDDTYYVNANITIPYSAG [r5_446_TrROS]	0.372 ± 0.19 kcal/mol	0.848 ± 0.048 kcal/mol	0.688 ± 0.19 kcal/mol
SAGGKITIEIEEEDGYLVIRIREEKEVYDEETGELKKEEKEITIVLPLEEAKKLAEELNLEIEIVEPSAGGS [r8_337_TrROS_Hall]	2.49 ± 0.16 kcal/mol	2.09 ± 0.079 kcal/mol	2.42 ± 0.23 kcal/mol
